Source: IntAct's records for PubMed 25910212

B1: B-cell lymphoma/leukemia 10 (Homo sapiens), O95999 (parent)
chain: MEPTAPSLTEEDLTEVKKDALENLRVYLCEKIIAERHFDHLRAKKILSREDTEEISCRTSSRKRAGKLLDYLQENPKGLDTLVESIRREKTQNFLIQKITDEVLKLRNIKLEHLKGLKCSSCEPFPDGATNNLSRSNSDESNFSEKLRASTVMYHPEGESSTTPFFSTNSSLNLPVLEVGRTENTIFSSTTLPRPGDPGAPPLPPDLQLEEEGTCANSSEMFLPLRSRTVSRQ
partner: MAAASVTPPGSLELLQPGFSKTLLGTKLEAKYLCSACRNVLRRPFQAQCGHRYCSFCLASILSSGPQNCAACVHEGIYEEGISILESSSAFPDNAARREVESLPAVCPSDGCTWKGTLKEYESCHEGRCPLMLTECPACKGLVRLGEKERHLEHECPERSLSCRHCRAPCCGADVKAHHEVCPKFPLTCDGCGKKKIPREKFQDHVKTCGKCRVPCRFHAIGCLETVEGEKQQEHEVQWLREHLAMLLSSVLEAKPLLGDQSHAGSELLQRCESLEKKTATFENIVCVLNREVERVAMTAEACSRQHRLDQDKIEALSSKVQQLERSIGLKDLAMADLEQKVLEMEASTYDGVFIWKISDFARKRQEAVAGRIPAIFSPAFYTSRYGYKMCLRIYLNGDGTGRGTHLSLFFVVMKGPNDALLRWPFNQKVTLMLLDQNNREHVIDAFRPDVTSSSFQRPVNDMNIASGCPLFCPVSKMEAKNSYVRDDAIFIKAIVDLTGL
B2: SH2 domain-containing protein 1A (Homo sapiens), O60880 (parent)
chain: MDAVAVYHGKISRETGEKLLLATGLDGSYLLRDSESVPGVYCLCVLYHGYIYTYRVSQTETGSWSAETAPGVHKRYFRKIKNLISAFQKPDQGIVIPLQYPVEKKSSARSTQGTTGIREDPDVCLKAP
B3: Acetylcholine receptor subunit gamma (Homo sapiens), P07510-2 (parent)
chain: MHGGQGPLLLLLLLAVCLGAQGRNQEERLLADLMQNYDPNLRPAERDSDVVNVSLKLTLTNLISLNEREEALTTNVWIEMQWCDYRLRWDPRDYEGLWVLRVPSTMVWRPDIVLENKSQTYSTNEIDLQLSQEDGQTIEWIFIDPEAFTENGEWAIQHRPAKMLLDPAAPAQEAGHQKVVFYLLIQRKPLFYVINIIAPCVLISSVAILIHFLPAKAGGQKCTVAINVLLAQTVFLFLVAKKVPETSQAVPLISKYLTFLLVVTILIVVNAVVVLNVSLRSPHTHSMARGVRKVFLRLLPQLLRMHVRPLAPAAVQDTQSRLQNGSSGWSITTGEEVALCLPRSELLFQQWQRQGLVAAALEKLEKGPELGLSQFCGSLKQAAPAIQACVEACNLIACARHQQSHFDNGNEEWFLVGRVLDRVCFLAMLSLFICGTAGIFLMAHYNRVPALPFPGDPRPYLPSPD
partner: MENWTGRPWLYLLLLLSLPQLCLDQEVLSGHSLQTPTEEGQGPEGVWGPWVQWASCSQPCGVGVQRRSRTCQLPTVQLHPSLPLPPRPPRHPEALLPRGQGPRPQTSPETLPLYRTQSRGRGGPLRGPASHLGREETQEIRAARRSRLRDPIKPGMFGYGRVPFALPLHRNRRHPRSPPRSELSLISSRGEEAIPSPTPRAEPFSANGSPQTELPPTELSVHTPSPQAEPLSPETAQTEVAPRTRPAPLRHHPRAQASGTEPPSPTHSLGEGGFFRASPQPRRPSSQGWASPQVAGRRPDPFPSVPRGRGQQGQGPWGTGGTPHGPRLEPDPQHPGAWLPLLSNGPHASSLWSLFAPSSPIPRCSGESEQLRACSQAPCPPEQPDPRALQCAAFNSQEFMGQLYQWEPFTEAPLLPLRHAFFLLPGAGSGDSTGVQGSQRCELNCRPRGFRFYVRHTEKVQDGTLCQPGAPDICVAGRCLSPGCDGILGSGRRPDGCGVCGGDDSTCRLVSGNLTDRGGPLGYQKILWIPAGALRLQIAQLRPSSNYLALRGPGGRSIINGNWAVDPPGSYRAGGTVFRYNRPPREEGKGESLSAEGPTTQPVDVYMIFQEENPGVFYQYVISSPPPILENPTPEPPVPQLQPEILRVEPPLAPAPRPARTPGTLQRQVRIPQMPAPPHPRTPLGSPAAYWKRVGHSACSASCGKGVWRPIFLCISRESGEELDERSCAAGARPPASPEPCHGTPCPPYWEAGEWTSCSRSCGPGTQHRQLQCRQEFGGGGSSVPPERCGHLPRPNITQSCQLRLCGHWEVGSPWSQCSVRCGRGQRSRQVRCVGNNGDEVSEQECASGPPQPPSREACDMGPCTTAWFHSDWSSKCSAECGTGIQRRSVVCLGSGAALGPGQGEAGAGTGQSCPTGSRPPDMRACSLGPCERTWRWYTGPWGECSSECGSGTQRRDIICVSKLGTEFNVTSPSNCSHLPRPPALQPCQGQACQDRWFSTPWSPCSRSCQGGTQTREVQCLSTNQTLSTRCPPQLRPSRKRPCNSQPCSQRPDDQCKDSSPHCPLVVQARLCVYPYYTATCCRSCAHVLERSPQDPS
B4: Carbonic anhydrase-related protein (Homo sapiens), P35219 (parent)
chain: MADLSFIEDTVAFPEKEEDEEEEEEGVEWGYEEGVEWGLVFPDANGEYQSPINLNSREARYDPSLLDVRLSPNYVVCRDCEVTNDGHTIQVILKSKSVLSGGPLPQGHEFELYEVRFHWGRENQRGSEHTVNFKAFPMELHLIHWNSTLFGSIDEAVGKPHGIAIIALFVQIGKEHVGLKAVTEILQDIQYKGKSKTIPCFNPNTLLPDPLLRDYWVYEGSLTIPPCSEGVTWILFRYPLTISQLQIEEFRRLRTHVKGAELVEGCDGILGDNFRPTQPLSDRVIRAAFQ
partner: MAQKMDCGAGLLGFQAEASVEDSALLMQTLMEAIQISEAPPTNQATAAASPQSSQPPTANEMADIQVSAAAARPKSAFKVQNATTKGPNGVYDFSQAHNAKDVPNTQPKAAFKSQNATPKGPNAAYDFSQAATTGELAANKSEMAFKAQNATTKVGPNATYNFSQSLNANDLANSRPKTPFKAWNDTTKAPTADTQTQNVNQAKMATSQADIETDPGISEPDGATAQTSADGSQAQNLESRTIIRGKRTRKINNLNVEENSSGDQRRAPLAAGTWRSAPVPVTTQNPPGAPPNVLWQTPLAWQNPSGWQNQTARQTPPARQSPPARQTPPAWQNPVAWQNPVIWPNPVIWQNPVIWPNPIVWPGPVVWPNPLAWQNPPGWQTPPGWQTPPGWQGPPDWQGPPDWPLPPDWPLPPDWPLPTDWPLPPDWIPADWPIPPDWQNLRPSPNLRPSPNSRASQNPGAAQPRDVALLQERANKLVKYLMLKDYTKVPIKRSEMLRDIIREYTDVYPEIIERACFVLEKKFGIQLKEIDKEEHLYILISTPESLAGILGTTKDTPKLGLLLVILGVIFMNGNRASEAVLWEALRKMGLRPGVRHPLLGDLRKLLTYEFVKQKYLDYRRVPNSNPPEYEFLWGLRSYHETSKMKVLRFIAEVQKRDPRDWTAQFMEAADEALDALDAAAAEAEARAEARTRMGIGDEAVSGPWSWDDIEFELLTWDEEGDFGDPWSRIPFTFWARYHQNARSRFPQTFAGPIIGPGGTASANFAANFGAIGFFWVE

Variants of: B1
Conditions: with traf2_human TRAF2, Q12933

Variant	effect of a mutation on the interaction
MEPTSPSLTEEDLTEVKKDALENLRVYLCEKIIAERHFDHLRAKKILSREDTEEISCRTSSRKRAGKLLDYLQENPKGLDTLVESIRREKTQNFLIQKITDEVLKLRNIKLEHLKGLKCSSCEPFPDGATNNLSRSNSDESNFSEKLRASTVMYHPEGESSTTPFFSTNSSLNLPVLEVGRTENTIFSSTTLPRPGDPGAPPLPPDLQLEEEGTCANSSEMFLPLRSRTVSRQ [A5S]	with no effect

Variants of: B2
Conditions: with TNK2, Q07912-2
TNK2, Q07912-2, sequence (Q07912 other isoform, or with tags, fused parts or gaps): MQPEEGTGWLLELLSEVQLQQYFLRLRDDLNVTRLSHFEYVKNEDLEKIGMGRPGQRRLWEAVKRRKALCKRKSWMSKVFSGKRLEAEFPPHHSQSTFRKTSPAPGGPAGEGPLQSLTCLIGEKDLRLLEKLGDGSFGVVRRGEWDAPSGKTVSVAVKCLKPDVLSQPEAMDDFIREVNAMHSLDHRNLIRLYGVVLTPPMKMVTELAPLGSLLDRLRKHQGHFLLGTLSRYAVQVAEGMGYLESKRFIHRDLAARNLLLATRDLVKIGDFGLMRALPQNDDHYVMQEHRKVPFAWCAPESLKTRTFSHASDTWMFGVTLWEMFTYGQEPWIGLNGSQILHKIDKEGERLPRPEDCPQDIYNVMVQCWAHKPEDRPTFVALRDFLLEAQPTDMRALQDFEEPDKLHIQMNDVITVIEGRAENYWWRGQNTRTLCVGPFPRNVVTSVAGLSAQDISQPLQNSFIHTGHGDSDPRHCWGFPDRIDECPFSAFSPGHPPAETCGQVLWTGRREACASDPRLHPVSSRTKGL

Variant	effect of a mutation on the interaction
MDAVAVYHGKISRETGEKLLLATGLDGSYLLTDSESVPGVYCLCVLYHGYIYTYRVSQTETGSWSAETAPGVHKRYFRKIKNLISAFQKPDQGIVIPLQYPVEKKSSARSTQGTTGIREDPDVCLKAP	with no effect
MDAVAVYHGKISRETGEKLLLATGLDGSYLLRDSESVPGVYCLCVLYHGYIYTYRVSQTETGSWSAETAPGVHKRYFRKIKNLISAFQKPDQDIVIPLQYPVEKKSSARSTQGTTGIREDPDVCLKAP	with no effect
MDAVAVYHGKISRETGEKLLLATGLDGSYLLRDSESVPGVYCLCVLYHGYIYTYRVSQTETGSWSAETAPGVHKRYFRKIKNLISAFQKPDQGIVIPLQYLVEKKSSARSTQGTTGIREDPDVCLKAP	with no effect

Variants of: B3
Conditions: with ADAMTSL4, Q6UY14-3

Variant	effect of a mutation on the interaction
MHGGQGPLLLLLLLAVCLGAQGRNQEERLLADLMQNYDPNLRPAERDSDVVNVSLKLTLTNLISLNEREEALTTNVWIEMQWCDYRLRWDPRDYEGLWVLRVPSTMVWRPDIVLENKSQTYSTNEIDLQLSQEDGQTIEWIFIDPEAFTENGEWAIQHRPAKMLLDPAAPAQEAGHQKVVFYLLIQCKPLFYVINIIAPCVLISSVAILIHFLPAKAGGQKCTVAINVLLAQTVFLFLVAKKVPETSQAVPLISKYLTFLLVVTILIVVNAVVVLNVSLRSPHTHSMARGVRKVFLRLLPQLLRMHVRPLAPAAVQDTQSRLQNGSSGWSITTGEEVALCLPRSELLFQQWQRQGLVAAALEKLEKGPELGLSQFCGSLKQAAPAIQACVEACNLIACARHQQSHFDNGNEEWFLVGRVLDRVCFLAMLSLFICGTAGIFLMAHYNRVPALPFPGDPRPYLPSPD [R187C]	disrupting interaction strength
MHGGQGPLLLLLLLAVCLGAQGRNQEERLLADLMQNYDPNLRPAERDSDVVNVSLKLTLTNLISLNEREEALTTNVWIEMQWCDYCLRWDPRDYEGLWVLRVPSTMVWRPDIVLENKSQTYSTNEIDLQLSQEDGQTIEWIFIDPEAFTENGEWAIQHRPAKMLLDPAAPAQEAGHQKVVFYLLIQRKPLFYVINIIAPCVLISSVAILIHFLPAKAGGQKCTVAINVLLAQTVFLFLVAKKVPETSQAVPLISKYLTFLLVVTILIVVNAVVVLNVSLRSPHTHSMARGVRKVFLRLLPQLLRMHVRPLAPAAVQDTQSRLQNGSSGWSITTGEEVALCLPRSELLFQQWQRQGLVAAALEKLEKGPELGLSQFCGSLKQAAPAIQACVEACNLIACARHQQSHFDNGNEEWFLVGRVLDRVCFLAMLSLFICGTAGIFLMAHYNRVPALPFPGDPRPYLPSPD [R86C]	disrupting interaction strength
MHGGQGPLLLLLLLAVCLGAQGRNQEERLLADLMQNYDPNLRPAERDSDVVNVSLKLTLTNLISLNEREEALTTNVWIEMQWCDYRLRWDPRDYEGLWVLRVPSTMGWRPDIVLENKSQTYSTNEIDLQLSQEDGQTIEWIFIDPEAFTENGEWAIQHRPAKMLLDPAAPAQEAGHQKVVFYLLIQRKPLFYVINIIAPCVLISSVAILIHFLPAKAGGQKCTVAINVLLAQTVFLFLVAKKVPETSQAVPLISKYLTFLLVVTILIVVNAVVVLNVSLRSPHTHSMARGVRKVFLRLLPQLLRMHVRPLAPAAVQDTQSRLQNGSSGWSITTGEEVALCLPRSELLFQQWQRQGLVAAALEKLEKGPELGLSQFCGSLKQAAPAIQACVEACNLIACARHQQSHFDNGNEEWFLVGRVLDRVCFLAMLSLFICGTAGIFLMAHYNRVPALPFPGDPRPYLPSPD [V107G]	disrupting interaction strength

Variants of: B4
Conditions: with magd1_human MAGED1, Q9Y5V3

Variant	effect of a mutation on the interaction
MADLSFIEDTVAFPEKEEDEEEEEEGVEWGYEEGVEWGLVFPDANGEYQSPINLNSREARYDPSLLDVRLSPNYVVCRDCEVTNDGHTIQVILKSKSVLPGGPLPQGHEFELYEVRFHWGRENQRGSEHTVNFKAFPMELHLIHWNSTLFGSIDEAVGKPHGIAIIALFVQIGKEHVGLKAVTEILQDIQYKGKSKTIPCFNPNTLLPDPLLRDYWVYEGSLTIPPCSEGVTWILFRYPLTISQLQIEEFRRLRTHVKGAELVEGCDGILGDNFRPTQPLSDRVIRAAFQ [S100P]	disrupting interaction strength
